In paper PMC6138639, “The ZZ-type zinc finger of ZZZ3 modulates the ATAC complex-mediated histone acetylation and gene activation” (Nature Communications, 2018):

Tests used:
[1] = target: T1, unmodified H3 peptide of the tryptophan fluorescence and NMR titration experiments; assay: tryptophan fluorescence; conditions: chain shown with the change; H3 (1–12) peptide; triplicates
T1 chain: ARTKQTARKSTG

[2] = target: T2, H3K4ac peptide of the tryptophan fluorescence and NMR titration experiments; assay: tryptophan fluorescence; conditions: chain shown with the change; H3K4ac (1–12) peptide; triplicates
T2 chain: ARTKQTAR

Kd [1]: 271 µM
Kd [2]: 294 µM
B1: ZZZ3 ZZ domain (aa 800–903), GST cleaved, Q8IYH5 F821A (protein)
chain: KLKKQKLQQMQAESGFVQHVGAKCDNCGIEPIQGVRWHCQDCPPEMSLDFCDSCSDCLHETDIHKEDHQLEPIYRSETFLDRDYCVSQGTSYNYLDPNYFPANR
